In patent US20230357323A1, “HUMAN IL23 RECEPTOR BINDING POLYPEPTIDES” (University of Washington, priority 2020, published 2023):
Like-named read-outs stand apart in the source and are kept apart here.

T1: human IL-23R (hIL-23R) (Homo sapiens, UniProt Q5VWK5)
T1 construct: his tag (C); purchased
T1 sequence (Q5VWK5 24-629): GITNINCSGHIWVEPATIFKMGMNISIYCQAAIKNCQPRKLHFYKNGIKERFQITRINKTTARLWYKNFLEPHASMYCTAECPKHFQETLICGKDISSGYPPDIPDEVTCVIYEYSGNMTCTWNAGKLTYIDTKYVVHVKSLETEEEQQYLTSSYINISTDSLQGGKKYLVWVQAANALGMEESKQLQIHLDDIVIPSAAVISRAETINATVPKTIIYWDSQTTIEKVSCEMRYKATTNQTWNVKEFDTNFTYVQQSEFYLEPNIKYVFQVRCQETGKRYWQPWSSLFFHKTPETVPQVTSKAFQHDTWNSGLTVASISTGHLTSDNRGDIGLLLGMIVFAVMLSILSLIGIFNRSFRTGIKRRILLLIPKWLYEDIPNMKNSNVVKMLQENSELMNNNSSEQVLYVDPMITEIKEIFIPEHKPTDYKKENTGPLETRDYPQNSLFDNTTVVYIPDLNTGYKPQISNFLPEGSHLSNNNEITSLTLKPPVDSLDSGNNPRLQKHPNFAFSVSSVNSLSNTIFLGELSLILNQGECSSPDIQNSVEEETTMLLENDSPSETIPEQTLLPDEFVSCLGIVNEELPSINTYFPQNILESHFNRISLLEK

B1: … (protein)
chain 1: MESEKYLRELVKKYYEGKLSVQEAVEEVRKYARKKGLEAWMLTWMFMELVKRYI
chain 2: B1 chain 1
notes: computational design, 3-helix bundle, 54 residues
B2: NLWQIFYQLSTILKRTGDPTAKKLLKALAEALKKGDEKALKELAKKATKYIRS (protein)
chain 1: NLWQIFYQLSTILKRTGDPTAKKLLKALAEALKKGDEKALKELAKKATKYIRS
chain 2: B2 chain 1
notes: computational design, 3-helix bundle, 53 residues

Columns and labels:
[1] = Circular dichroism temperature and chemical denaturant (GuHCl) melts; type: physicochemical
Method: FIG. 3. Stability analysis of B08, a representative affinity-matured combinatorial variant and BO4dslf02, a representative disulfide-stabilized variant. (A) Designed proteins were incubated in simulated gastric or intestinal fluids and degradation was assessed by SDS PAGE at 5, 15, 30 and 60 minutes, 4 and 24 hours. (B) Resistance to temperature and chemical denaturant (GuHCl) was assessed by circular dichroism, measuring the helical signature (signal at 222 nm) in the conditions shown normalized to baseline (25° C. and 0 M GuHCl).
CD spectra were recorded with a J-1500 Circular Dichroism Spectrometer (JASCO). Proteins were assayed at […] in DPBS free of MgCl2 and […]. (Life Technologies) with guanidinium hydrochloride from 0 to 6 M, and data were collected at 25° C. For temperature melts, proteins at […] were heated from 25° C. to 95° C. over approximately 1.5 hours.

human IL-23R (hIL-23R) = target: T1, human IL-23R (hIL-23R); experiment: Biolayer interferometry (BLI) binding to hIL-23R; details: biolayer interferometry binding titrations; read-out: affinity (KD) for hIL-23R
Text: Two designs, 23R_A (SEQ ID NO:10) and 23R_B (SEQ ID NO:110), were highly enriched in the final selection pool and were chosen for further biochemical characterization. Both designs are 3-helix bundles (54 and 53 residues, respectively) which incorporate the native Trp hotspot at the N-terminal end of a helix such that IL-23R residue D118 forms a helix-capping hydrogen bond with the Trp hotspot's free backbone amine, similar to the αD helix of p19 (FIG. 1D). In both designs, this central binding helix has a larger interaction surface with hIL-23R, mediated by additional de novo hotspots, than p19. […]
Variants were first screened for relative binding to hIL-23R with biolayer interferometry (BLI). hIL-23R was immobilized on the BLI sensor tips and binding to each variant in solution at a constant concentration (50 nM) was measured to qualitatively determine relative performance of the variants. For the best-performing variants, binding constants (KD, including kon, and koff) were quantitatively determined with BLI titration experiments in triplicate. […]
Qualitative and quantitative assessment of binding affinity was performed using biolayer interferometry (ForteBio Octet™ […] and associated software for analysis). […] Kinetic constants were determined from the mathematical fit of a 1:1 binding model.

Molecule | stability by circular dichroism (CD) ([1]; high temperature and high concentrations of chemical denaturant) | Kd (human IL-23R (hIL-23R)) [nM] | stability by circular dichroism (CD) [1]
B1 | high stability | 26 ± 1 | –
B2 | – | 70 ± 50 | high stability
